Reference: the supplement of paper PMC10567573
± gives the standard deviation.

Assay: protein stability index of a GFP-peptide fusion (GPS, HEK-293T) (PSI 1-6); higher = more stable
[1] = treatment: DMSO, c terminus: a fixed tail appended
[2] = treatment: MLN4924 1 uM, 8 h, c terminus: a fixed tail appended
[3] = treatment: DMSO, c terminus: native
[4] = treatment: MLN4924 1 uM, 8 h, c terminus: native
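Further: 24-mer peptide tiles fused after GFP, lentivirally expressed, FACS-sorted into six equal bins by GFP/DsRed ratio, decoded by Illumina sequencing, PSI is the read-weighted mean bin number.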

Sequence	protein stability index [1]	protein stability index [2]	protein stability index [3]	protein stability index [4]
HTAKCEKLQKEKEELERRFEDEVK [MTUS2]	5.57 ± 0.26	5.6 ± 0.07	–	–
DLSSLRAKYPHDVVNHLSCDEARN [SPACA9]	4.47 ± 0.21	4.33 ± 0.47	–	–
KPILLHQVEALAAAGVDHVILAVS [GMPPB]	2.55 ± 0.48	2.61 ± 0.5	–	–
YKRSMDPGYPKMIAHDFPGIGHKV [MMP1]	2.55 ± 0.21	2.77 ± 0.094	–	–
ASENHGCEHECVNADGSYLCQCHE [MATN2]	5.46 ± 0.17	5.49 ± 0.38	–	–
LLGFNLTFVFLASLLVLIEPVAAG [CLCN6]	3.45 ± 0.23	3.14 ± 0.36	–	–
NASRSLYPDAEDPQLGLDGPGEPD [PSD2]	5.4 ± 0.2	5.51 ± 0.22	–	–
AKVKPFDPKITCKQECLITTFQDV [TPH1]	2.75 ± 0.52	2.42 ± 0.52	–	–
APALPPGGTDPHGYHQVPGSAAPG [FOXJ1]	5.16 ± 0.18	5.38 ± 0.4	–	–
ITLDGGVLVHVQKWDGKSTTIKRK [FABP4]	2.46 ± 0.38	3.06 ± 0.1	–	–
LRAIDFGTDEEEEEFIEEEDQEEE [TRIM63]	5.63 ± 0.15	5.65 ± 0.13	–	–
ALQEYSSISEKLSSTNFAMKRDVQ [C8orf76]	3.26 ± 0.18	3.48 ± 0.43	–	–
VASLPLDQSDEGSSSQKEESPSTL [MAGEA10]	5.65 ± 0.14	5.64 ± 0.14	–	–
LYSSSLGGGVATSPMLIVFHGKYS [GLT8D2]	2.38 ± 0.48	2.44 ± 0.52	–	–
KCPWMEGGEMSPQVETSIEGTIPF [INTS4]	4.08 ± 0.27	4.03 ± 0.2	–	–
PSNGRIDIKQLIAKKIKLTAEAEE [SOAT1]	3.19 ± 0.59	3.33 ± 0.31	–	–
QNQSDSLLALAGAVQRLEGALWGL [SCARA5]	2.4 ± 0.35	2.33 ± 0.32	–	–
RPVLLSKIEGHQDAVTAALLIPKE [WDFY1]	3.87 ± 0.28	3.94 ± 0.34	–	–
EAFAASAVGSGERRGGGPVFPAPV [ZBTB22]	3.93 ± 0.32	4.03 ± 0.28	–	–
ELTFSYIAFDGVVGSGGRRDSTAR [RTN2]	3.17 ± 0.079	3.15 ± 0.28	–	–
EESGAQLLLEMLTFNPHKRISAFR [CDK4]	2.21 ± 0.15	2.23 ± 0.18	–	–
TSPVLPSLIQLLGRNFILFIIFGT [HACD3]	3.11 ± 0.48	2.98 ± 0.4	–	–
YPHFSHRPSTLQAASTPQAEEDWT [OAS1]	4.52 ± 0.27	4.76 ± 0.23	–	–

Sequence	protein stability index [1]	protein stability index [2]	protein stability index [3]	protein stability index [4]
SMCEHHLVPFVGKVHIGYLPNKQV [GCH1]	2.16 ± 0.38	2.29 ± 0.39	–	–
DAFWWAVVTMTTVGYGDMHPVTIG [KCNA3]	3.67 ± 0.52	3.17 ± 0.31	–	–
IGMHREMQVNPISKRMGPMTVVRM [RHOBTB1]	2.39 ± 0.44	2.39 ± 0.32	–	–
GDGLLVGSEKVTMQNLNDRLASYL [KRT16]	2.66 ± 0.17	2.78 ± 0.32	–	–
PIPHVFSAGTGSAILPHFHHAFR [PLAGL1]	–	–	3.04 ± 0.22	3.17 ± 0.16
IDICHDHFGWYLGWGDCVWLPYLY [DHCR7]	2.55 ± 0.12	3.3 ± 0.27	–	–
EPHPRPLLQRELMVPGTRHSAVLR [TNXB]	3.93 ± 0.42	4.2 ± 0.59	–	–
PPETVQNWIELLSGETWNPLKLHY [GOLPH3]	2.17 ± 0.24	2.12 ± 0.21	–	–
NVGRVHRVAKKLQSGLVWTNCWLI [ALDH8A1]	3.04 ± 0.41	2.61 ± 0.49	–	–
SSLDLSYYPTSSSTSFMSSSSSSS [EMD]	3.99 ± 0.06	3.84 ± 0.34	–	–
TCLTGVLGVGLGVEISRRLRHSNP [SPNS1]	2.36 ± 0.22	2.09 ± 0.36	–	–
QLREALKILAERVLILETMIGLYE [EMID1]	2.31 ± 0.27	–	–	–
VLMWLLTYVGALFNGLTLLLMAVV [RTN1]	2.51 ± 0.29	2.42 ± 0.13	–	–
LGLVARQEDSGLRDHSVRVLISNH [AUP1]	3 ± 0.15	3.01 ± 0.36	–	–
MSIHIVALGNEGDTFHQDNQPSGL [RHOBTB3]	2.51 ± 0.25	2.52 ± 0.4	–	–
NKTLLRLRLRKERVSDVQKVLQGG [PKD2L1]	2.65 ± 0.23	2.94 ± 0.35	–	–
LPVGTQLLTVTATDRDEGANGEVT [PCDHGA10]	5.32 ± 0.37	5.4 ± 0.23	–	–
RPPGPAGTEQSRGLGHGSTSRGGP [CPOX]	4.794 ± 0.018	4.92 ± 0.33	–	–
LRDVNHEKAMAEWVKQQAEREAEK [SDE2]	5.19 ± 0.12	5.42 ± 0.23	–	–
KMVPRYDLNRHLDEMCANNDFVQV [FAN1]	2.81 ± 0.15	2.8 ± 0.46	–	–
HGASAPSVSREARQTVPPLTVRLH [PWWP2B]	3.76 ± 0.48	3.73 ± 0.12	–	–
GLEHAAAGGSSGTTARERPCVRPG [FBF1]	4.96 ± 0.24	4.95 ± 0.2	–	–
VPQRTAGGDVPERELYIRWLEVAA [MYORG]	2.62 ± 0.19	2.77 ± 0.3	–	–

Sequence	protein stability index [1]	protein stability index [2]	protein stability index [3]	protein stability index [4]
HETRLVEVDSGRQIEYEYKLAQAL [LMNB1]	3.81 ± 0.044	3.96 ± 0.29	–	–
VKQYLSTTLGPKLASQALTPPPGP [TFE3]	2.92 ± 0.19	2.93 ± 0.3	–	–
SLYLLLVSCPKSEVRAKFKFSLLN [SPOPL]	2.56 ± 1.2	2.49 ± 0.74	–	–
DLLCAQLQLPQLSDLGLLRLCTWL [FANCE]	2.53 ± 0.35	2.78 ± 0.42	–	–
HPDDRPKLNKPPETLITTIDSSSS [CYB5A]	4.85 ± 0.49	5.04 ± 0.32	–	–
GRVHLVKEKTAKHFFALKVMSIPD [PRKX]	1.87 ± 0.52	2.38 ± 0.57	–	–
RELLLDGGYLQRTTYDRRSSQERK [RSPH3]	4.39 ± 0.28	4.8 ± 0.24	–	–
STVQILTEGFPPGGGNARATGMFL [ZFYVE21]	2.16 ± 0.19	2.27 ± 0.35	–	–
ANPFQAYLDVDLTLTREQTERLSH [RTN2]	3.65 ± 0.3	3.67 ± 0.31	–	–
RQTKKMFCDMDKSLLCLLCSNSQE [TRIM43]	2.44 ± 0.15	2.86 ± 0.21	–	–
FRSRSRLTHLSLSRRASESSLSSE [CDC25B]	3.84 ± 0.22	3.99 ± 0.099	–	–
TQMIREGGARSLWRGNGINVLKIA [SLC25A25]	2.72 ± 0.25	2.77 ± 0.21	–	–
GLEEADAEVSVISEADPQALLQAM [FBF1]	5.06 ± 0.26	5.05 ± 0.15	–	–
DCVDGLFKEVKEKFKGWVSYSTSE [DLC1]	3.04 ± 0.5	3.33 ± 0.3	–	–
ILLDPILMFFIMAAMLSMVKYNSC [POMT2]	3.27 ± 0.18	3.2 ± 0.05	–	–
FQVPVLCAVMNVVFITILIIALIA [CD69]	2.91 ± 0.36	2.96 ± 0.68	–	–
EAWYEDLQEVLSSDENGGTYVSPP [DDIT3]	4.89 ± 0.11	4.93 ± 0.15	–	–
QPWVEVVLALRNMKNLLFSEMWDI [MFSD9]	2.78 ± 0.66	2.44 ± 0.44	–	–
FQRRNMIEPRERAKFKRKYKVKLV [NOP53]	2.87 ± 0.46	3.39 ± 0.58	–	–
SKKLRAILPKQSRKSMLDAGPDSW [LCOR]	2.71 ± 0.06	3.03 ± 0.44	–	–
GRQKYKRRPEVDPLPFPGPFPAGP [ESRRA]	3.87 ± 0.22	4.02 ± 0.26	–	–
EQVRFLMKSYSFLREAVPGILRAR [SOAT2]	1.85 ± 0.62	2.1 ± 0.51	–	–
LLVLCEDHRGRMVKHQCCPGCGYF [EHMT1]	2.36 ± 0.087	2.27 ± 0.36	–	–

Sequence	protein stability index [1]	protein stability index [2]	protein stability index [3]	protein stability index [4]
FLMGRVLYFHHYFPAMLFSSMLTG [POMT2]	3.35 ± 0.21	3.37 ± 0.43	–	–
QGPTPRYFTWDEVAQRSGCEERWL [FADS1]	3.43 ± 0.27	3.39 ± 0.24	–	–
RHFGTILNYLRDGSVPLPESTREL [KCTD13]	2.78 ± 0.16	2.94 ± 0.41	–	–
RKGKDKENGSVSSSETPPPPPPPN [EIF5]	5.15 ± 0.2	5.22 ± 0.28	–	–
AGTSSHGCWAWPLAGLSVGRSSLT [PXN]	2.5 ± 0.26	2.61 ± 0.26	–	–
SNNNGRIKQLRSGGTPIRGALQIE [PTPRD]	3.76 ± 0.33	3.85 ± 0.36	–	–
PAASNSSDLFDLMGSSQATMTSSQ [CLINT1]	5.06 ± 0.16	5.02 ± 0.17	–	–
LQPEQQLNIYKTLKTHLIEKGILQ [CDS1]	2.42 ± 0.14	2.58 ± 0.4	–	–
RIPYTKSQTEAHYSCQSKEILRYM [P2RY14]	2.42 ± 0.32	2.45 ± 0.49	–	–
MHANVEDRGIKGDITPLMAAANGG [ANKRD17]	4.58 ± 0.14	4.67 ± 0.086	–	–
EQPFIPVEVLVDLFLKEGACDELF [PRAME]	2.39 ± 0.16	2.39 ± 0.35	–	–
SEEKGHPQEESEESNVSMASLGEK [CHGB]	5.48 ± 0.21	5.61 ± 0.19	–	–
DYTWTEFDEPFLTRNVQSVSIIDT [TRIP13]	3.1 ± 0.24	3.19 ± 0.23	–	–
VCISTKTQCSEEDQCKINKQIYNL [FEM1B]	3.22 ± 0.19	3.33 ± 0.25	–	–
SKPGVYTSYKPYLNRDEEIIKQLQ [DENND6A]	–	3.35 ± 0.42	–	–
ESLMALCTDFCLRNLDGTLGYLLD [ZER1]	2.71 ± 0.4	2.94 ± 0.39	–	–
KVVKGHRPELPPVCRARPRACSHL [RIPK4]	3.19 ± 0.36	3.04 ± 0.46	–	–
RDSLTQPDEEPMHYGNIMYDRRVI [RSPH3]	3.62 ± 0.45	3.8 ± 0.23	–	–
LNGASVLPHKSIGESVPEPRIIM [GMPPB]	–	–	3.65 ± 0.17	3.71 ± 0.14
RPPAYSPAQRSHTYTHGLGLHRRP	3.63 ± 0.28	3.75 ± 0.16	–	–
ASYSGKAADVWSLGVALFTMLAGH [TRIB3]	2.99 ± 0.43	2.75 ± 0.54	–	–
